# Results reported in article PMC7332966.
# B1: ds32F (dsDNA)
# DNA 1: CGATCGGTAACGTATGCTGAATCTGGTGCTGG
# DNA 2: CCAGCACCAGATTCAGCATACGTTACCGATCG
# Legend:
# [1] = target: FANCI (I);FANCD2 (D2) (Homo sapiens;Homo sapiens, UniProt Q9NVI1;Q9BXW9 1-1328;1-1451, |); assay: PIFE; 150 mM NaCl; Kd only in bar graph; EMSA: 16 mM Tris-HCl pH 8, 150 mM NaCl, 4.4% glycerol, 0.07 mg/ml BSA, 7 mM DTT, 4 mM EDTA, 2 nM DNA, on ice 20 min, 4% PAGE in 0.5x TBE (4 C). PIFE: 150 mM NaCl, 125 nM DNA, 22 C.; conditions: protein: recombinant;recombinant; tags: His6-TEV-V5 (N-term); His6-3C, cleaved in some cases; copies: 1;1; label: 5' IRDye700 on both strands; blunt
# [2] = target: FANCI R1285Q;FANCD2 (D2) (Homo sapiens;Homo sapiens, UniProt Q9NVI1;Q9BXW9 1-1328;1-1451, R1285Q|); assay: PIFE; minor, insignificant reduction vs WT I+D2; Kd only in bar graph; EMSA: 16 mM Tris-HCl pH 8, 150 mM NaCl, 4.4% glycerol, 0.07 mg/ml BSA, 7 mM DTT, 4 mM EDTA, 2 nM DNA, on ice 20 min, 4% PAGE in 0.5x TBE (4 C). PIFE: 150 mM NaCl, 125 nM DNA, 22 C.; conditions: protein: recombinant;recombinant; tags: His6 (N-term);FLAG (EMSA); His6-3C, cleaved in some cases; copies: 1;1; label: 5' IRDye700 on both strands; blunt
# FANCI R1285Q;FANCD2 (D2), sequence (Q9NVI1 whole entry R1285Q, chain 1 of 2): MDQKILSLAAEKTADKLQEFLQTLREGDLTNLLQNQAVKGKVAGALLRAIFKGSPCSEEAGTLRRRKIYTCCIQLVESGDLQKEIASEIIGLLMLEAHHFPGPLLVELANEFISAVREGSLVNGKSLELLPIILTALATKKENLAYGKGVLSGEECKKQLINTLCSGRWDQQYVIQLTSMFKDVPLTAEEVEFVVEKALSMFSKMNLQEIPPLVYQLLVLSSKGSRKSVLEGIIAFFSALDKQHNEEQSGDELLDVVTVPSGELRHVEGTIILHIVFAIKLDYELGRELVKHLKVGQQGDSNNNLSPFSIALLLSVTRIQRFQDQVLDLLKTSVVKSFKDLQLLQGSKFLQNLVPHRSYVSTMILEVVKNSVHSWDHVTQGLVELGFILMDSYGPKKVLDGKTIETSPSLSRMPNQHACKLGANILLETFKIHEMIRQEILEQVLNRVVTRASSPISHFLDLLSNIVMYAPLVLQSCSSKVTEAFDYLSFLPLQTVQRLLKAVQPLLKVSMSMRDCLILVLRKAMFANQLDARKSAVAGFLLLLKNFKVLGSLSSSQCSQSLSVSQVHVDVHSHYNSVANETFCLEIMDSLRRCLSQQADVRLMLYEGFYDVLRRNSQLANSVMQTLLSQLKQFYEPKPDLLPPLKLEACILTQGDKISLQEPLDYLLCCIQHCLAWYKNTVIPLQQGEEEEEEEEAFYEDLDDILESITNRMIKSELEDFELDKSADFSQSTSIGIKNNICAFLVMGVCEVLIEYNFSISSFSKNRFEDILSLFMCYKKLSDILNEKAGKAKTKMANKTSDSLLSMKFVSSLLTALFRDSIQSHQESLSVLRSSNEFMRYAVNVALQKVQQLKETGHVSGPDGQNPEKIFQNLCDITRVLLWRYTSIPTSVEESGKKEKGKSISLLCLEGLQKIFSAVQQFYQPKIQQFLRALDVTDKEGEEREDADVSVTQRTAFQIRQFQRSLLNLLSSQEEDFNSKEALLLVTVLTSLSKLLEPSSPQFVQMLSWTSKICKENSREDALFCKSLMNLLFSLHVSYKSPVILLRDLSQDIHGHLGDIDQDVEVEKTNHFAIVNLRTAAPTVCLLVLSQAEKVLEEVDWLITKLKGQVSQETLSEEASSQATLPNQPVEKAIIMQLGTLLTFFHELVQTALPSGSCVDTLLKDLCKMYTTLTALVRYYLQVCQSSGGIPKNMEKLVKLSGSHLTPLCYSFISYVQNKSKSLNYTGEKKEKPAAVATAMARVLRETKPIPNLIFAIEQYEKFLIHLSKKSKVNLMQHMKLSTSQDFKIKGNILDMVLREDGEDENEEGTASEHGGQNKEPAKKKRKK
# FANCI R1285Q;FANCD2 (D2), sequence (Q9BXW9 whole entry, chain 2 of 2): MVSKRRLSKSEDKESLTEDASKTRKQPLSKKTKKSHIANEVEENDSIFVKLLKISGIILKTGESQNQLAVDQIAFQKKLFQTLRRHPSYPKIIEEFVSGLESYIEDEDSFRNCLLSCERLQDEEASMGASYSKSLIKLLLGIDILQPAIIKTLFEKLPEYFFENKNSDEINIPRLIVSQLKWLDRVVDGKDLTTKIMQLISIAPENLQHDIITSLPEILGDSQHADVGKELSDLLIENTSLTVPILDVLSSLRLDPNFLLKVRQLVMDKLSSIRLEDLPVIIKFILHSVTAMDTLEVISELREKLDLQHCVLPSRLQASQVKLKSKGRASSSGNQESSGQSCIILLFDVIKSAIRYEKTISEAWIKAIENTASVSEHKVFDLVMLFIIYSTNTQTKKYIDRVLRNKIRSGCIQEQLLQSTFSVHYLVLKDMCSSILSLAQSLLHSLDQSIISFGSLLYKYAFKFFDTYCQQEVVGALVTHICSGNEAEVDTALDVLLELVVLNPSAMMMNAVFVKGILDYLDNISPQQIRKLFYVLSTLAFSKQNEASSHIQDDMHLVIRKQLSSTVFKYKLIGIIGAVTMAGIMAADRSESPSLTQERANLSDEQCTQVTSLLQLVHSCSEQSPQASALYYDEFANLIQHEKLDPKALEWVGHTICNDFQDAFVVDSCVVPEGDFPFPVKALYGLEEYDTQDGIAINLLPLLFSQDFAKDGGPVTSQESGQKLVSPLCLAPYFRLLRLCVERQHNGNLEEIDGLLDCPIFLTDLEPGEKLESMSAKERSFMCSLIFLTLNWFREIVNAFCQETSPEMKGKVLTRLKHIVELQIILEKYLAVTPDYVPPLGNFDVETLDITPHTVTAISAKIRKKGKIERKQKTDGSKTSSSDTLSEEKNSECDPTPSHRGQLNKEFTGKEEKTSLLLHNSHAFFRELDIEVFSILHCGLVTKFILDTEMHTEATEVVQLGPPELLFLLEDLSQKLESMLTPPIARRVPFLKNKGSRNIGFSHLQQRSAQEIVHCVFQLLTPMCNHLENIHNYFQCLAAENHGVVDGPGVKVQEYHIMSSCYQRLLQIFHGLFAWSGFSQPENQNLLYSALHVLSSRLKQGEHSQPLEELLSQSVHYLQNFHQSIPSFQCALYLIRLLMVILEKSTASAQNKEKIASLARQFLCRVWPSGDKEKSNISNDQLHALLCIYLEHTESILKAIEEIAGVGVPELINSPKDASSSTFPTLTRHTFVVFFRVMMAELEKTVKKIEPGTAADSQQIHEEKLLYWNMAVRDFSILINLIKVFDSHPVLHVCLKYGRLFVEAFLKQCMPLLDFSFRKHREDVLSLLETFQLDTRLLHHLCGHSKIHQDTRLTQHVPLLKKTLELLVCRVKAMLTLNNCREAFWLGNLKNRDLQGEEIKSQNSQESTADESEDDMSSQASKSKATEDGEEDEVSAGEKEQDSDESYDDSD
# FANCI (I);FANCD2 (D2), sequence (Q9NVI1 whole entry, chain 1 of 2): as the sequence (Q9NVI1 whole entry R1285Q, chain 1 of 2) above, with Q1285R counted along it
# FANCI (I);FANCD2 (D2), sequence (Q9BXW9 whole entry, chain 2 of 2): as the sequence (Q9BXW9 whole entry, chain 2 of 2) above
binder,measurement,setting,value
B1,binding result,[1],binds
same,binding result,[2],binds
